Columns and labels:
[1] = molecular target: S366 peptide of STING
[2] = molecular target: A366 peptide of STING
[3] = system: A366 peptide; experiment: screening of kinases for S366 of STING (33P-ATP); assay type: biochemical; conditions: kinase mixed with peptide and 33P-ATP
Procedure: (§1) The activity of 217 protein kinase targets were evaluated against 2 peptides (A366 and S366) as substrate. Protein kinases were mixed with each peptide and ^33P-ATP and then activity (CPM) was measured. The below kinases were identified as phosphorylating S366 in STING. Identification of kinases which target this serine opens up novel avenues for drug discovery. Drugs that target this association may inhibit STING activity and be used for therapeutic purposes to inhibit STING activity. STING over activity may lead to inflammatory diseases which can exacerbate cancer.

[4] = system: S366 peptide; experiment: screening of kinases for S366 of STING (33P-ATP); assay type: biochemical; conditions: for Fold inducton: S366 peptide vs A366 peptide; for Activity, S366 peptide: kinase mixed with peptide and 33P-ATP
Procedure: as §1

Row | Molecule | Activity (cpm), kinase mixed with peptide and 33P-ATP [1] [cpm] | Activity (cpm), kinase mixed with peptide and 33P-ATP [2] [cpm] | Activity, A366 peptide [3] [cpm] | Fold inducton [4] | Activity, S366 peptide [4] [cpm]
1 | PIM2 (from UniProt Q9P1W9) (enzyme) | 3720 | 1410 | – | – | –
2 | NEK6 (from UniProt Q9HC98) (enzyme) | 35600 | 5510 | – | – | –
3 | NEK7: protein kinase | – | – | 3619 | 5.28 | 19112
4 | NEK6: protein kinase | – | – | 5512 | 6.45 | 35556
5 | PKC (isoform illegible) (enzyme) | 12800 | 6810 | – | – | –
6 | PIM2: protein kinase | – | – | 1414 | 2.63 | 3715
7 | NEK7 (from UniProt Q8TDX7) (enzyme) | 19100 | 3620 | – | – | –
8 | CK1 (isoform illegible) (enzyme) | 26200 | 15600 | – | – | –
9 | GRK7 (enzyme) MVDMGALDNLIANTAYLQARKPSDCDSKELQRRRRSLALPGLQGCAELRQKLSLNFHSLCEQQPIGRRLFRDFLATVPTFRKAATFLEDVQNWELAEEGPTKDSALQGLVATCASAPAPGNPQPFLSQAVATKCQAATTEEERVAAVTLAKAEAMAFLQEQPFKDFVTSAFYDKFLQWKLFEMQPVSDKYFTEFRVLGKGGFGEVCAVQVKNTGKMYACKKLDKKRLKKKGGEKMALLEKEILEKVSSPFIVSLAYAFESKTHLCLVMSLMNGGDLKFHIYNVGTRGLDMSRVIFYSAQIACGMLHLHELGIVYRDMKPENVLLDDLGNCRLSDLGLAVEMKGGKPITQRAGTNGYMAPEILMEKVSYSYPVDWFAMGCSIYEMVAGRTPFKDYKEKVSKEDLKQRTLQDEVKFQHDNFTEEAKDICRLFLAKKPEQRLGSREKSDDPRKHHFFKTINFPRLEAGLIEPPFVPDPSVVYAKDIAEIDDFSEVRGVEFDDKDKQFFKNFATGAVPIAWQEEIIETGLFEELNDPNRPTGCEEGNSSKSGVCLLL | 13100 | 7260 | 7263 | 1.81 | 13124
10 | IKKα (enzyme) MERPPGLRPGAGGPWEMRERLGTGGFGNVCLYQHRELDLKIAIKSCRLELSTKNRERWCHEIQIMKKLNHANVVKACDVPEELNILIHDVPLLAMEYCSGGDLRKLLNKPENCCGLKESQILSLLSDIGSGIRYLHENKIIHRDLKPENIVLQDVGGKIIHKIIDLGYAKDVDQGSLCTSFVGTLQYLAPELFENKPYTATVDYWSFGTMVFECIAGYRPFLHHLQPFTWHEKIKKKDPKCIFACEEMSGEVRFSSHLPQPNSLCSLVVEPMENWLQLMLNWDPQQRGGPVDLTLKQPRCFVLMDHILNLKIVHILNMTSAKIISFLLPPDESLHSLQSRIERETGINTGSQELLSETGISLDPRKPASQCVLDGVRGCDSYMVYLFDKSKTVYEGPFASRSLSDCVNYIVQDSKIQLPIIQLRKVWAEAVHYVSGLKEDYSRLFQGQRAAMLSLLRYNANLTKMKNTLISASQQLKAKLEFFHKSIQLDLERYSEQMTYGISSEKMLKAWKEMEEKAIHYAEVGVIGYLEDQIMSLHAEIMELQKSPYGRRQGDLMESLEQRAIDLYKQLKHRPSDHSYSDSTEMVKIIVHTVQSQDRVLKELFGHLSKLLGCKQKIIDLLPKVEVALSNIKEADNTVMFMQGKRQKEIWHLLKIACTQSSARSLVGSSLEGAVTPQTSAWLPPTSAEHDHSLSCVVTPQDGETSAQMIEENLNCLGHLSTIIHEANEEQGNSMMNLDWSWLTE | 6890 | 2430 | 2432 | 2.83 | 6889
